These results are taken from PMC10396304.

The target in assay [1] is SfLadC, LOV-activated diguanylate cyclase from Serratia fonticola AU-AP2C (Serratia fonticola AU-AP2C). The assay can be described thus: SEC-MALS; Superdex 200 Increase 10/300 GL in storage buffer, 500-1000 ug protein, dark-adapted state (non-actinic light); miniDAWN MALS detector. (SEC sorts molecules by how far they enter the pores of the column.)
For assay [2] the target is unchanged. The assay can be described thus: SEC-MALS; Superdex 200 Increase 10/300 GL in storage buffer, 500-1000 ug protein, illuminated state (blue light 465 nm for 1 min before loading and during the whole run); miniDAWN MALS detector.
Assay [3] has as its target MsLadC, LOV-activated diguanylate cyclase from Methylotenera sp. (Methylotenera sp.). The assay can be described thus: SAXS; steady-state dark-adapted sample, BM29 ESRF, 20°C in the capillary, MsLadC 0.8 mg/ml, NT-AoLadC 0.9 mg/ml; molecular weight from Porod volume and volume of correlation.
Assay [4] shares this target. The assay can be described thus: SEC-MALS; Superdex 200 Increase 10/300 GL in storage buffer, 500-1000 ug protein, dark-adapted state (non-actinic light); miniDAWN MALS detector.
Assay [5] has the same target. The assay can be described thus: SEC-MALS; Superdex 200 Increase 10/300 GL in storage buffer, 500-1000 ug protein, illuminated state (blue light 465 nm for 1 min before loading and during the whole run); miniDAWN MALS detector.
The target is the same in assay [6]. The assay can be described thus: SAXS; steady-state light-adapted sample (blue light 465 nm), BM29 ESRF, 20°C in the capillary, MsLadC 0.8 mg/ml, NT-AoLadC 0.9 mg/ml; molecular weight from Porod volume and volume of correlation.
For assay [7], the target named is DpLadC, LOV-activated diguanylate cyclase from Deinococcus peraridilitoris DSM 19664 (Deinococcus peraridilitoris DSM 19664). The assay can be described thus: SEC-MALS; Superdex 200 Increase 10/300 GL in storage buffer, 500-1000 ug protein, dark-adapted state (non-actinic light); miniDAWN MALS detector.
The target is the same in assay [8]. The assay can be described thus: SEC-MALS; Superdex 200 Increase 10/300 GL in storage buffer, 500-1000 ug protein, illuminated state (blue light 465 nm for 1 min before loading and during the whole run); miniDAWN MALS detector.
The target in assay [9] is AoLadC, LOV-activated diguanylate cyclase from Aquella oligotrophica (Aquella oligotrophica). The assay can be described thus: SEC-MALS; Superdex 200 Increase 10/300 GL in storage buffer, 500-1000 ug protein, dark-adapted state (non-actinic light); miniDAWN MALS detector.
The target is the same in assay [10]. The assay can be described thus: SEC-MALS; Superdex 200 Increase 10/300 GL in storage buffer, 500-1000 ug protein, illuminated state (blue light 465 nm for 1 min before loading and during the whole run); miniDAWN MALS detector.

On to “SfLadC, LOV-activated diguanylate cyclase from Serratia fonticola AU-AP2C (enzyme)”, for which the stoichiometry N in [1] and in [2] was 2 in each case.
Regarding “MsLadC, LOV-activated diguanylate cyclase from Methylotenera sp. (enzyme)”, the stoichiometry N in [3], in [4], in assay [5] and in [6] was 2 in each case.
As for “DpLadC, LOV-activated diguanylate cyclase from Deinococcus peraridilitoris DSM 19664 (enzyme)”, the stoichiometry N in [7] and in assay [8] was 2 in each case.
In the case of “AoLadC, LOV-activated diguanylate cyclase from Aquella oligotrophica (enzyme)”, the stoichiometry N in [9] and in assay [10] was 2 each time.
